These results are taken from publication PMC9823104, “Targeted systematic evolution of an RNA platform neutralizing DNMT1 function and controlling DNA methylation”.

For data set [1], the target named is T1, His-tagged DNMT1 (Homo sapiens, UniProt P26358 1-1616). Nature of the data set: ELONA; BLI: AR2G tips, protein amine-coupled, assay buffer not fully stated (PBS pre-hydration); MST: 50 nM RED-tris-NTA labelled stock in 25 mM Hepes pH 7.5, 250 mM NaCl, 0.05% Tween 20 / PBS-T mix, 25 C; EMSA: 5 mM Tris pH 7.4, 5 mM MgCl2, 1 mM DTT, 3% glycerol, 100 mM NaCl, RT; ELONA: PBS, RT; pulldown: 10 mM Tris pH 7.5, 200 nM (so in the source) NaCl, 5 mM EDTA, 0.1% Triton X-100. The settings on record: protein: commercial; tags: His6; label: 3' biotin; hairpin (predicted).
T1 sequence (P26358 whole entry): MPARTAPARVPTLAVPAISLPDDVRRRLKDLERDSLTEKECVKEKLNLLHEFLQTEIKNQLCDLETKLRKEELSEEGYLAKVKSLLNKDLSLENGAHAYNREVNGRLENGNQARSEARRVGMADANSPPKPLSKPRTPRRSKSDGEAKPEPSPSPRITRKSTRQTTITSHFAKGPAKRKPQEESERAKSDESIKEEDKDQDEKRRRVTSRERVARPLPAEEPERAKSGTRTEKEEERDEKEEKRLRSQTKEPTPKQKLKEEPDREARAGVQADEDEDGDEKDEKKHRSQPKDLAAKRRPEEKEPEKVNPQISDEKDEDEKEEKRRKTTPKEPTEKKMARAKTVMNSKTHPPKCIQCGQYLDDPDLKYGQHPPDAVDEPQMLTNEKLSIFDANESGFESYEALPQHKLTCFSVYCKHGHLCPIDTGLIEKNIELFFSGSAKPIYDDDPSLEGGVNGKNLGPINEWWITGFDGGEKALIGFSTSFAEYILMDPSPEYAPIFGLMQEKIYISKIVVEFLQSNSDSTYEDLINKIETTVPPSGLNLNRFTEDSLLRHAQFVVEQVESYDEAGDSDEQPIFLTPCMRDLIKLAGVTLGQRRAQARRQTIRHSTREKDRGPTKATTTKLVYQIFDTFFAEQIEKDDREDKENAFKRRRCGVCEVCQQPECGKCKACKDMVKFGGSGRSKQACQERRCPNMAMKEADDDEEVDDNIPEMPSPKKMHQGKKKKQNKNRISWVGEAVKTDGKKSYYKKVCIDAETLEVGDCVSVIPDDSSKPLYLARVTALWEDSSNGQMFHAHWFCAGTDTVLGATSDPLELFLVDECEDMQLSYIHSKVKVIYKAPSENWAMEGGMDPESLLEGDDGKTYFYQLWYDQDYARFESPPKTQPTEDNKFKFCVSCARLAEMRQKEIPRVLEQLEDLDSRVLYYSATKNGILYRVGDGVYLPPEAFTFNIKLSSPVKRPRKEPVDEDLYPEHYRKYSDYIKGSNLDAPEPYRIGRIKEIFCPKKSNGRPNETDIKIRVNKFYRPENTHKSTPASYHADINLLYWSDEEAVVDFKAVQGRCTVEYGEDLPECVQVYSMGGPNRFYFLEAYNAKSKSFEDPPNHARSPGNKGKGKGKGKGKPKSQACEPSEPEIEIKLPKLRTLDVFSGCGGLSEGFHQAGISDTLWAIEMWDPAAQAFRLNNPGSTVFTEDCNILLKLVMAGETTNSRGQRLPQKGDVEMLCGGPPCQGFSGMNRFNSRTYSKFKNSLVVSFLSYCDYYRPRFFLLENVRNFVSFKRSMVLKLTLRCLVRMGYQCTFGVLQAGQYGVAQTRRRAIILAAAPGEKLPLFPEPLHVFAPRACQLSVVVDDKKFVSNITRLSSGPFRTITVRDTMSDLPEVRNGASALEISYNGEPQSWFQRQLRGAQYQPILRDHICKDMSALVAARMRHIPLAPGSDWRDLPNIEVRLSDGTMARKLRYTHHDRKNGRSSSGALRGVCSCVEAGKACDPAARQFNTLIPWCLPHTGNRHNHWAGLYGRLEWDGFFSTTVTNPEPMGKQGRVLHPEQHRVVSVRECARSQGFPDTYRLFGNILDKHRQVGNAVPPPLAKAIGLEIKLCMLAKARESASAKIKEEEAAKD

Data set [2] deals with T2, DNMT1 (purified, Active Motif) (UniProt P26358 1-1616). Nature of the data set: BLI; BLI: AR2G tips, protein amine-coupled, assay buffer not fully stated (PBS pre-hydration); MST: 50 nM RED-tris-NTA labelled stock in 25 mM Hepes pH 7.5, 250 mM NaCl, 0.05% Tween 20 / PBS-T mix, 25 C; EMSA: 5 mM Tris pH 7.4, 5 mM MgCl2, 1 mM DTT, 3% glycerol, 100 mM NaCl, RT; ELONA: PBS, RT; pulldown: 10 mM Tris pH 7.5, 200 nM (so in the source) NaCl, 5 mM EDTA, 0.1% Triton X-100. The settings on record: protein: commercial; for Kd: hairpin (predicted).
T2 sequence (P26358 whole entry): as above

Data set [3] deals with T1, His-tagged DNMT1. Nature of the data set: MST; BLI: AR2G tips, protein amine-coupled, assay buffer not fully stated (PBS pre-hydration); MST: 50 nM RED-tris-NTA labelled stock in 25 mM Hepes pH 7.5, 250 mM NaCl, 0.05% Tween 20 / PBS-T mix, 25 C; EMSA: 5 mM Tris pH 7.4, 5 mM MgCl2, 1 mM DTT, 3% glycerol, 100 mM NaCl, RT; ELONA: PBS, RT; pulldown: 10 mM Tris pH 7.5, 200 nM (so in the source) NaCl, 5 mM EDTA, 0.1% Triton X-100. The settings on record: protein: commercial; tags: His6; hairpin (predicted).

For data set [4], the target named is T2, DNMT1 (purified, Active Motif). The data set can be described thus: BLI; no binding detected below 100 nM RNA; BLI: AR2G tips, protein amine-coupled, assay buffer not fully stated (PBS pre-hydration); MST: 50 nM RED-tris-NTA labelled stock in 25 mM Hepes pH 7.5, 250 mM NaCl, 0.05% Tween 20 / PBS-T mix, 25 C; EMSA: 5 mM Tris pH 7.4, 5 mM MgCl2, 1 mM DTT, 3% glycerol, 100 mM NaCl, RT; ELONA: PBS, RT; pulldown: 10 mM Tris pH 7.5, 200 nM (so in the source) NaCl, 5 mM EDTA, 0.1% Triton X-100. To be noted: protein: commercial; hairpin (predicted).

Data set [5] addresses T1, His-tagged DNMT1. The data set can be described thus: MST; up to 1.5 uM RNA; BLI: AR2G tips, protein amine-coupled, assay buffer not fully stated (PBS pre-hydration); MST: 50 nM RED-tris-NTA labelled stock in 25 mM Hepes pH 7.5, 250 mM NaCl, 0.05% Tween 20 / PBS-T mix, 25 C; EMSA: 5 mM Tris pH 7.4, 5 mM MgCl2, 1 mM DTT, 3% glycerol, 100 mM NaCl, RT; ELONA: PBS, RT; pulldown: 10 mM Tris pH 7.5, 200 nM (so in the source) NaCl, 5 mM EDTA, 0.1% Triton X-100. The settings on record: protein: commercial; tags: His6; unable to form stem-loop.

As a reminder, the Kd is the concentration at which binding is half-saturated.

Consider UGGGCUGAGCUCAUGGCGAGGCUUC (structured_RNA, 2'-F pyrimidines (all C and U)) [Ce-9 sh biotin], for which the binding result in data set [1] is “binds”.
On to UUACUGGGCUGAGGUAAUGGCGAGG (structured_RNA, 2'-F pyrimidines (all C and U)) [Ce-10-2 sh], for which the figures for the equilibrium dissociation constant (Kd) in data set [2] and in data set [3] were 66.4 ± 24 nM and 106 ± 42 nM, respectively.
Taken in the same sequence, the figures for CUGAGGCCUAACGAAGGCUUCU (structured_RNA, 2'-F pyrimidines (all C and U)) [Ce-49 sh] were 79.2 ± 23.7 nM and 119 ± 34 nM.
As for AGGUAAUGGCGAGGCUUCUUAUCUG (structured_RNA, 2'-F pyrimidines (all C and U)) [Ce-10-1 sh biotin], in data set [1], the binding result was “binds”.
Take CUGAGGCCUUGGCGAGGCUUCU (structured_RNA, 2'-F pyrimidines (all C and U)) [DNMT1 bait (2'F-Py R5)]: the values for the dissociation constant (Kd) in data set [3] and in data set [4] were 440 ± 140 nM and 600 ± 100 nM, respectively.
With CAGAGGACAAGGCGAGGCAACA (ssRNA, 2'-F pyrimidines (all C and U)) [mutR5], the binding result in data set [2] (unable to form stem-loop) and in data set [5] was “no binding” each time.
